Measured values reported in US9994886B2, “Modified Epstein-Barr virus DNA polymerase and methods for isothermal DNA amplification” (priority 2013, dated 2018).
Residue numbers refer to the chain shown, from its start. Names and notes keep the numbering of the source.

What was measured:
[1] = DNA polymerase activity in vitro of BALF5 deletion polypeptides; assay type: biochemical; conditions: with or without BMRF1, high and low ionic strength
GST-BMRF1(1-303) = molecular target: T1, GST-BMRF1(1-303) (Epstein-Barr virus, UniProt P03191); test: Binding of radiolabeled BALF5-deletion polypeptides to GST-BMRF1(1-303); conditions: 100 mM ammonium sulfate; [35S]-methionine labeled in vitro translated polypeptides
T1 construct: A GST fusion with BMRF1 residues 1-303 was constructed and expressed in E. coli BL21*DE3; made in house; host or cells: E. coli BL21*DE3
T1 sequence (P03191 1-303): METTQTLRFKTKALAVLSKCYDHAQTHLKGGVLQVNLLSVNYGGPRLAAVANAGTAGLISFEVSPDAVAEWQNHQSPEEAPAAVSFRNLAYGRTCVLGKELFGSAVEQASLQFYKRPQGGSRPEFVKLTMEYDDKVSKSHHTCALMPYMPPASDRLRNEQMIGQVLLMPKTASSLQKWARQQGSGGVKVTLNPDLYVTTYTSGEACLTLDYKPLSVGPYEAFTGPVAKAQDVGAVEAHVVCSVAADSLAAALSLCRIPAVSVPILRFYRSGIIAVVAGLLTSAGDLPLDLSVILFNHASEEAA
Description: To determine if the extreme carboxyl terminus of the EBV BALF5 subunit is necessary for functional interaction with BMRF1, a series of deletions of the BALF5 open reading frame was constructed in the pYES-X2 vector and [^35S]-methionine labeled polypeptides were expressed by in vitro transcription-translation as described (Kiehl, A. and D. I. Dorsky, J Virol, 1995, 69(3): p. 1669-77). These radiolabeled BALF5-deletion polypeptides were then assayed for binding to GST-BMRF1(1-303) in 100 mM ammonium sulfate. In vitro translated BALF5 bound to GST-BMRF1(1-303) but not to GST alone.

[2] = system: activated calf thymus (CT) DNA; test: DNA polymerase elongation activity of purified BALF5 on activated calf thymus DNA; assay type: biochemical; conditions: BMRF1 at concentrations required for stimulation at high-salt
Description: When assayed in the presence of BMRF1, its activity on CT DNA at 100 mM ammonium sulfate was greater than 100-fold increased over its activity alone, in the absence of salt.

[3] = monomeric form of BMRF1; cited from earlier work

B1: C550: BALF5 with deletion of the carboxyl terminal 465 residues (protein)
chain: MASASLTMSGGLFYNPFLRPNKGLLKKPDKEYLRLIPKCFQTPGAAGVVDVRGPQPPLCFYQDSLTVVGGDEDGKGMWWRQRAQEGTARPEADTHGSPLDFHVYDILETVYTHEKCAVIPSDKQGYVVPCGIVIKLLGRRKADGASVCVNVFGQQAYFYASAPQGLDVEFAVLSALKASTFDRRTPCRVSVEKVTRRSIMGYGNHAGDYHKITLSHPNSVCHVATWLQDKHGCRIFEANVDATRRFVLDNDFVTFGWYSCRRAIPRLQHRDSYAELEYDCEVGDLSVRREDSSWPSYQALAFDIECLGEEGFPTATNEADLILQISCVLWSTGEEAGRYRRILLTLGTCEDIEGVEVYEFPSELDMLYAFFQLIRDLSVEIVTGYNVANFDWPYILDRARHIYSINPASLGKIRAGGVCEVRRPHDAGKGFLRANTKVRITGLIPIDMYAVCRDKLSLSDYKLDTVARHLLGAKKEDVHYKEIPRLFAAGPEGRRRLGMYCVQDSALVMDLLNHFVIHVEVAEIAKIAHIPCRRVLDDGQQIRVFSCLLAAAQKENF
DNA polymerase activity in vitro [1]: catalytically inactive
binding to GST-BMRF1(1-303) (GST-BMRF1(1-303)): did not bind

B2: WT (1-404): full-length 50-kDa BMRF1 processivity factor subunit of EBV DNA polymerase, SEQ ID NO. 9 (protein)
chain: METTQTLRFKTKALAVLSKCYDHAQTHLKGGVLQVNLLSVNYGGPRLAAVANAGTAGLISFEVSPDAVAEWQNHQSPEEAPAAVSFRNLAYGRTCVLGKELFGSAVEQASLQFYKRPQGGSRPEFVKLTMEYDDKVSKSHHTCALMPYMPPASDRLRNEQMIGQVLLMPKTASSLQKWARQQGSGGVKVTLNPDLYVTTYTSGEACLTLDYKPLSVGPYEAFTGPVAKAQDVGAVEAHVVCSVAADSLAAALSLCRIPAVSVPILRFYRSGIIAVVAGLLTSAGDLPLDLSVILFNHASEEAAASTASEPEDKSPRVQPLGTGLQQRPRHTVSPSPSPPPPPRTPTWESPARPETPSPAIPSHSSNTALERPLAVQLARKRTSSEARQKQKHPKKVKQAFNPLI
modifications: Epstein-Barr Virus
effect on the low-salt activity of BALF5 [2]: did not appear to significantly decrease

B3: C95E: BMRF1 comprising a C95E mutation, a monomeric form of BMRF1 (protein, UniProt P03191 1-404, looked up, variant C95E)
DNA polymerase processivity …: B2 chain with C95E
EBVpol processivity [3]: can still efficiently catalyze EBVpol processivity

B4: ΔC903: BALF5 with deletion of the carboxyl-terminal 112 residues (protein)
chain: MASASLTMSGGLFYNPFLRPNKGLLKKPDKEYLRLIPKCFQTPGAAGVVDVRGPQPPLCFYQDSLTVVGGDEDGKGMWWRQRAQEGTARPEADTHGSPLDFHVYDILETVYTHEKCAVIPSDKQGYVVPCGIVIKLLGRRKADGASVCVNVFGQQAYFYASAPQGLDVEFAVLSALKASTFDRRTPCRVSVEKVTRRSIMGYGNHAGDYHKITLSHPNSVCHVATWLQDKHGCRIFEANVDATRRFVLDNDFVTFGWYSCRRAIPRLQHRDSYAELEYDCEVGDLSVRREDSSWPSYQALAFDIECLGEEGFPTATNEADLILQISCVLWSTGEEAGRYRRILLTLGTCEDIEGVEVYEFPSELDMLYAFFQLIRDLSVEIVTGYNVANFDWPYILDRARHIYSINPASLGKIRAGGVCEVRRPHDAGKGFLRANTKVRITGLIPIDMYAVCRDKLSLSDYKLDTVARHLLGAKKEDVHYKEIPRLFAAGPEGRRRLGMYCVQDSALVMDLLNHFVIHVEVAEIAKIAHIPCRRVLDDGQQIRVFSCLLAAAQKENFILPMPSASDRDGYQGATVIQPLSGFYNSPVLVVDFASLYPSIIQAHNLCYSTMITPGEEHRLAGLRPGEDYESFRLTGGVYHFVKKHVHESFLASLLTSWLAKRKAIKKLLAACEDPRQRTILDKQQLAIKCTCNAVYGFTGVANGLFPCLSIAETVTLQGRTMLERAKAFVEALSPANLQALAPSPDAWAPLNPEGQLRVIYGDTDSLFIECRGFSESETLRFADALAAHTTRSLFVAPISLEAEKTFSCLMLITKKRYVGVLTDGKTLMKGVELVRKTACKFVQTRCRRVLDLVLADARVKEAASLLSHRPFQESFTQGLPVGFLPVIDILNQAYTDLREGRVPMGELCFS
DNA polymerase activity in vitro [1]: wild-type DNA polymerase activity
binding to GST-BMRF1(1-303) (GST-BMRF1(1-303)): binding was preserved

B5: N160: BALF5 with deletion of the amino-terminal 160 residues (protein)
chain: VEFAVLSALKASTFDRRTPCRVSVEKVTRRSIMGYGNHAGDYHKITLSHPNSVCHVATWLQDKHGCRIFEANVDATRRFVLDNDFVTFGWYSCRRAIPRLQHRDSYAELEYDCEVGDLSVRREDSSWPSYQALAFDIECLGEEGFPTATNEADLILQISCVLWSTGEEAGRYRRILLTLGTCEDIEGVEVYEFPSELDMLYAFFQLIRDLSVEIVTGYNVANFDWPYILDRARHIYSINPASLGKIRAGGVCEVRRPHDAGKGFLRANTKVRITGLIPIDMYAVCRDKLSLSDYKLDTVARHLLGAKKEDVHYKEIPRLFAAGPEGRRRLGMYCVQDSALVMDLLNHFVIHVEVAEIAKIAHIPCRRVLDDGQQIRVFSCLLAAAQKENFILPMPSASDRDGYQGATVIQPLSGFYNSPVLVVDFASLYPSIIQAHNLCYSTMITPGEEHRLAGLRPGEDYESFRLTGGVYHFVKKHVHESFLASLLTSWLAKRKAIKKLLAACEDPRQRTILDKQQLAIKCTCNAVYGFTGVANGLFPCLSIAETVTLQGRTMLERAKAFVEALSPANLQALAPSPDAWAPLNPEGQLRVIYGDTDSLFIECRGFSESETLRFADALAAHTTRSLFVAPISLEAEKTFSCLMLITKKRYVGVLTDGKTLMKGVELVRKTACKFVQTRCRRVLDLVLADARVKEAASLLSHRPFQESFTQGLPVGFLPVIDILNQAYTDLREGRVPMGELCFSTELSRKLSAYKSTQMPHLAVYQKFVERNEELPQIHDRIQYVFVEPKGGVKGARKTEMAEDPAYAERHGVPVAVDHYFDKLLQGAANILQCLFDNNSGAALSVLQNFTARPPF
DNA polymerase activity in vitro [1]: catalytically inactive
binding to GST-BMRF1(1-303) (GST-BMRF1(1-303)): did not prevent binding

B6: A107-550: BALF5 with internal deletion of residues 107-550 (protein)
chain: MASASLTMSGGLFYNPFLRPNKGLLKKPDKEYLRLIPKCFQTPGAAGVVDVRGPQPPLCFYQDSLTVVGGDEDGKGMWWRQRAQEGTARPEADTHGSPLDFHVYDILETVYTHILPMPSASDRDGYQGATVIQPLSGFYNSPVLVVDFASLYPSIIQAHNLCYSTMITPGEEHRLAGLRPGEDYESFRLTGGVYHFVKKHVHESFLASLLTSWLAKRKAIKKLLAACEDPRQRTILDKQQLAIKCTCNAVYGFTGVANGLFPCLSIAETVTLQGRTMLERAKAFVEALSPANLQALAPSPDAWAPLNPEGQLRVIYGDTDSLFIECRGFSESETLRFADALAAHTTRSLFVAPISLEAEKTFSCLMLITKKRYVGVLTDGKTLMKGVELVRKTACKFVQTRCRRVLDLVLADARVKEAASLLSHRPFQESFTQGLPVGFLPVIDILNQAYTDLREGRVPMGELCFSTELSRKLSAYKSTQMPHLAVYQKFVERNEELPQIHDRIQYVFVEPKGGVKGARKTEMAEDPAYAERHGVPVAVDHYFDKLLQGAANILQCLFDNNSGAALSVLQNFTARPPF
DNA polymerase activity in vitro [1]: catalytically inactive
binding to GST-BMRF1(1-303) (GST-BMRF1(1-303)): did not prevent binding
